This is an account of results in the nanobody polyreactivity screen of Harvey et al. (2022).

This series is described as follows: yeast display, Sf9 membrane polyspecificity reagent, FACS + sequencing; frameworks hold sequencing errors. Summed up: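 A synthetic nanobody library was expressed on Saccharomyces cerevisiae BJ5465 by galactose induction for 36–48 hours. The library was stained for 1 hour at 4 °C with 10% biotinylated, detergent-solubilized Sf9 membrane reagent and enriched with streptavidin microbeads before FACS. Low and high (top ~1%) gates were set on anti-HA fluorescence for expression and streptavidin fluorescence for reagent binding, and each polyreactivity label reflects the gate of origin.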
With “QFQLVESGGGLVQAGVSLRLSCAASGSIIKYYAMGWYRQAPGKERELVATINWNGGSTYYADSVKGRFTISRDNAKNTVYLQMNSLKPEDTAVYYCAAGYRGSYYHSHYEYLGQGTQVTVSS”, the “polyreactivity (PSR sort gate)” value is “high polyreactivity”. Regarding “QFQLVESGGGVVQAPGSLRLSSAASGSLFTVYAMGWYRQAPGKERELVAAISYGGGSTYYADSVKGRFTISRDTAKNTVYLQMNSLKQEDTAVYYCAADPYYSYGYYHAHGRDVGYWGQGTQVTVSS”, the “polyreactivity (PSR sort gate)” value is “low polyreactivity”. In the case of “QFQLVESGRGLVQAGGSLRLSCAASGSTILYYAMGWYRQAPGTERELVAAISSSDGSTYYADSVKGRFTISRDNAKYTVYLQMNSLKPEDTAVYYCNADFYWGYNYWGQGTQVTVSS”, the “polyreactivity (PSR sort gate)” value is on record as “high polyreactivity”. With “QFQLVESVGGLVQAGGSLRLSCAASGRTFVDYDMGCYRPAPGKERELVAAIRRGGSTTYEDSVKGRFTISRDNAKNTVYLQMNSLKPEDTAVYYCATDNTYGSDYWGQGTQVTVSW”, the “polyreactivity (PSR sort gate)” value is given as “high polyreactivity”. On to “QFQLVESVGGLVQAGGSLRLSLASSGSIFGPNTMGWYRQAPGKERELVAAIRGGGSTNYADSVKGRFTISRDNAKNTVYLQMNSLKPEDTAVYYCNATWNLFPGFLDRYDYWGQGTQVTVSS”, for which the “polyreactivity (PSR sort gate)” value is reported as “low polyreactivity”. In the case of “QFQLVETVGGLVQAGGSLRLSCAASGFTYKSYAMGWYCQAPVKERELVASISRRGGSTYYADSVKGRFTISRDNAKNNVYLQMNSLKPEDTAVYYCNKYFRYRGDYDYWGQGTQVTVSS”, the “polyreactivity (PSR sort gate)” value was “high polyreactivity”. For “QGHLDESGGGIVQAGGSLRLSCAASGITVVTYAMGWYRQAPGKERELVAAISRSGGRTYYADSVKGRFTISRDNAKNTVYLLMNSLKPEDTAVYYCAAERKNKYDYWGQGTQVTVSS” the value was “high polyreactivity”. For the sequence “QGHREESGGGLVQAGGSLRLSCAASGSTFGIYALGWYIQEQGKERELVAAITWSGSSTYYADSVKGRFTISRDNAKNNVYLQINSLKPEDTAVYYCAAEDTLYEYYYWGQGTQVTVSS”, the “polyreactivity (PSR sort gate)” value is listed as “high polyreactivity”. Consider “QGKLVESGGGLVQAGGSLRLTCPASGSIFRLNTMGWYRQAPGKEREFVAAISKGGTSTYYADSVKGRFTISRDNAKNTVYLQLTSLIPEDTAVYYCARKRYPSAPFQYDYWGQGTQVTVSS”, for which the “polyreactivity (PSR sort gate)” value is on record as “high polyreactivity”. For “QGQLEESGGGLFQAGGSLRLSCAASGRIFLYNGMGWYRQAPGKERELVAGITTGGNTNYADSVKGRFTISRDNAKNTVYLQMNSLKPEDTAVYYCAAEVIVYGWSPDYDYWGQGTQVTVSS”, the “polyreactivity (PSR sort gate)” value is reported as “low polyreactivity”.

Turning to “QGQLGESGGGLVQAGGSLRLSCAASGIIFTWYVMGWYRQAPGKERELVAAISASGASTYYADSVKGRFTISRDNAKNTVYLQMHSLNPEDPAVNYCNRYPTDGRTSYVTYYYWGQGTQVTVSS”, the “polyreactivity (PSR sort gate)” value is given as “high polyreactivity”. The result for “QGQLGEYGGGLVQAGGSLRLSCAAYGRTVYYYAMGWYRQEPGKDREFVAGITATGSSTYYADSVKGRFTISRDNAKNTVYLQMNSLKPEDTAVYFCAADRYTTYSGQWSYPYDYWGQGTQVTVSS” reads “low polyreactivity”; that for “QGQLQESGGGLVQAAGSLRMSCAASGTIFSEANMGWYRQAPGQVRELVATIGQGSTTNYADSVKGRFTISRDNAKNTVYLQMISLKPEETGVYYCAVVTVDPVGFVYWGQGTQVTVSS”, “low polyreactivity”; that for “QGQLVESAGGLGQAGGSLRLSCAASGRTLGRYVMGWYRQGPGQVRELVAAISARTGSTYYADSVKGRFTISRDNAKNTVYLQMNSLKPEDTAVYYCATKFSSYDTRVSYDYWGQGTQVTVSS”, “low polyreactivity”. Take “QGQLVESAGGLVQAAGSLRLSCAASGITFHYYAMGWYRQAPGKERELVAAIDGSDTDTYYADSVKGRFTISRDNAKNTVYLQMNSLKQEDTAVYYCAAEYTYAALARNDDYWGQCTQVTVSS”: the “polyreactivity (PSR sort gate)” value is recorded as “high polyreactivity”. With “QGQLVESAGGLVQAGGSLRLSCAASGSTFDYYTIGWYRQAPGKERELVAAISSSGGSTYYADSVKGRFTISRANAKNTVYLQMNSLKPVDTAVYYCAAKWDWGYGRGFQYGFNYWGQGTQVTVSS”, the “polyreactivity (PSR sort gate)” value is “low polyreactivity”. For “QGQLVESCGGLVQAGGSLLLSCAASGRIFRSYAMGGYRPAPGKERELVASMSTGGSTNYADSVKGRFTFSRDTAKNSGYLQKNRLKPEDTAVYYCAAGPYYKYWGQRYNYWGQGTQVTVSS” the value was “high polyreactivity”; for “QGQLVESGGALVQAGGTLRLSCAASGIIFSGNGMGWYRQAPGNVRELVAAITAGAGTNYADSVKGRFTISRDNAKNSVYLQMHSLKPEDPGVYYCAVDGRSVPAWWPRFDYWGQGTQVTVSS”, “low polyreactivity”. The result for “QGQLVESGGCLVQAGGSLRLSCAASGIIFWSYAMGWYRQAPGKERELVAAISRRGGSTSYADSVKGRFTISRDNAKTTVYLQMNSLKPEDTAVYYCAADRYFNPKSYSTEFDYWGQGTQVTVSS” reads “high polyreactivity”; that for “QGQLVESGGGFVQAGGSLRLSCDASGNIFSANAMGWYRQAPWKEREFVAAISSTGGSTYYADSVKGRFTISRDNEMNTLYLQMNCLKPEDTAVYYCAAYIRRYFHYDYWRQGTQVTVSS”, “high polyreactivity”. On to “QGQLVESGGGIVQAGGSLRLSCAASGFNFWQYAMGLYRQAPGKERELVAAITSSGTSTYYADSVKGLFTISRDNAKNTVYLQMNSLKPEDTAVYSCAADLGYYDLYYWGQGTQVTVSS”, for which the “polyreactivity (PSR sort gate)” value was “low polyreactivity”. As to “QGQLVESGGGLDQAGVSLRLSCAASGFIFSFDNAMGWYRQAPGTERELVAAISSGTTTHYADSVKGRFTISRDNAKNTVYLQMNSLKPEDSAVYDCAADSVKQVRYGNVGHDDWGQGTQVTVSS”, the “polyreactivity (PSR sort gate)” value was “low polyreactivity”. Regarding “QGQLVESGGGLVHAGGRLRLSCAASGSTFTTYAMGWYRQAPGTERELVAAISTNGGRTFYADSVKGRFTISRDNAKTTFYLQMNSLKTEDTAVYYCAAQYGLYAPGYYYWGHGTQVTVSS”, the “polyreactivity (PSR sort gate)” value is reported as “low polyreactivity”.

Consider “QGQLVESGGGLVQAGGRLRLSCAASGYNFGSYAMGWYRQAPGKERELVAAISGGGSTNYADSVKGRFTISRDNAKNTVYLQMHSLKPEDTAVYYCAAYPYLYPLRFEEYDHWGQGTQVTVSS”, for which the “polyreactivity (PSR sort gate)” value is reported as “low polyreactivity”. For the sequence “QGQLVESGGGLVQAGGSIRLSCAASGSTTFYAMGWYRQAPGKEWELVATISSSAGSTYYADSVKGRFTISRDNAKNTVYLQMNSLKPEDTAFYYCAKAAYGNSYTSDYWGQGTQVTVSS”, the “polyreactivity (PSR sort gate)” value is on record as “low polyreactivity”. Consider “QGQLVESGGGLVQAGGSLRLSCAASARTYGNYAMGRYREAPGKERELVADITRRGGSTSYADSVKGRFTISRDNAKNTVYLQMNSLKPEDTAVYYCNKRTTPYYSQGITRIEYDYWGQGTQVTVSS”, for which the “polyreactivity (PSR sort gate)” value is “low polyreactivity”. Take “QGQLVESGGGLVQAGGSLRLSCAASGFIFFSNAMGWYRQEPGKERELVAAISRIGVSTYYADSVKGRFTISRDNAKNTVYLQLNSLKPEDTAVYYCAADLSDYWRGDSWGQGTLVTVSS”: the “polyreactivity (PSR sort gate)” value is “low polyreactivity”. The result for “QGQLVESGGGLVQAGGSLRLSCAASGFIFSSNAMGLYRHAPGKERELVAAISSSGGNTYYADSVKGRFTISRDNAKKTVDLQMNSLKPEDTAVYYCAADLSSAYGHDYWGLGTQVTVSS” reads “low polyreactivity”; that for “QGQLVESGGGLVQAGGSLRLSCAASGFTFGHYAMGWYRQAPGKERELVAAIRWSGGSTYYADSVKGRFTISRDNAKNTVYLQMNSLKPEDTAVYYCAARGFDGYEYDYWGQGTQVTVSS”, “low polyreactivity”; that for “QGQLVESGGGLVQAGGSLRLSCAASGFTFWYYAKGWSRQAPRKEREMVAVINTSGASTYADSVKGRFTISRDNAKITVDLQMNSLKPEDTAVYYCAAEGIATYPYDYWGHGTQVTVSS”, “low polyreactivity”. As for “QGQLVESGGGLVQAGGSLRLSCAASGISFSFYAMGWYRQAPGKERELVADITLSGGRTYYADSVKGRFTISRDNAKNTVYLQMNSLKPEDTAVYYCNADTYERVDYWGQGTQVTVSS”, the “polyreactivity (PSR sort gate)” value is recorded as “high polyreactivity”. As to “QGQLVESGGGLVQAGGSLRLSCAASGITFYYYAMGWYRQAPGKERELVAAINWSGTSTYYADSVKGRFTISRDNAKNTVYLQMNSLKPEDTAVYYCNAERGRSFWWAYDYWGQGTQVTVSS”, the “polyreactivity (PSR sort gate)” value is reported as “low polyreactivity”. For the sequence “QGQLVESGGGLVQAGGSLRLSCAASGLIFYKYAMGWYRQAPGKERELVAVISWSGGSTYYADSVKGRFTISRDNAKNTVYLQMNRLKPEDTAVYYCAADTSYYRIRGWFGRVDYGYWGQGTQVTVSS”, the “polyreactivity (PSR sort gate)” value is given as “high polyreactivity”.

Regarding “QGQLVESGGGLVQAGGSLRLSCAASGRIFEFNARGWYRQAPGKERELVAANSRSGGSTYYADSVKGRFTISRDKAKNTVYLQMNTQKPEHTAVYYCNAVYHYYPLYYWKYGYWGQGTQVTVSS”, the “polyreactivity (PSR sort gate)” value is given as “low polyreactivity”. For “QGQLVESGGGLVQAGGSLRLSCAASGRIFGHYAMGWYRQAPGKERELVAAISQSGTNTYYADSVKGRFTISRDNAKNTVYLQMNSLKPEDTAVYYCAAKPPRRYQLMDYWGQGTQVTVSS”, the “polyreactivity (PSR sort gate)” value is listed as “high polyreactivity”.

In the case of “QGQLVESGGGLVQAGGSLRLSCAASGRIFYAYAMGWYRQAPGKERELGAAITSSGGRTYYADSVKGRFTISRDTAKNTVYLQLNSLKPEDTAVYYCAAYDYWGQGTQVTVSS”, the “polyreactivity (PSR sort gate)” value is listed as “low polyreactivity”. Regarding “QGQLVESGGGLVQAGGSLRLSCAASGRIFYGNVMGWYRQAPGKERELVADISYDGGSTYYADSVKGRFTISRDNAKNTVYLQMNSLKPEDTAVYYCNKREVFIYGTTYDYWGQGTQVTVSS”, the “polyreactivity (PSR sort gate)” value is on record as “low polyreactivity”. On to “QGQLVESGGGLVQAGGSLRLSCAASGRNFRINDMGWYRQAPGKERELVAAITWSGGSTYYADSVKGRCPISRDNAKNTVYLQMHSLKPEDTAVYYCAADQAYFWGYYYWGQGTQVTVSS”, for which the “polyreactivity (PSR sort gate)” value is listed as “low polyreactivity”. On to “QGQLVESGGGLVQAGGSLRLSCAASGRTFKYNVMGWYRQAPGKERELVAAISSGGGTNYADSVKGRFTISRDNAKNTVDLQMNSLKPEDTAVYYCAAKYAWRLLEMYYWGQGTQVTVSS”, for which the “polyreactivity (PSR sort gate)” value is given as “low polyreactivity”.

Consider “QGQLVESGGGLVQAGGSLRLSCAASGRTFYRYAMGWYRQAPGKERELVAAITRRGDSTSYADSVKGRFTISRDNAKNTVYLQMNSLKPEDTAVYYCATLVQGSVYGLYGGGYWGQGTQVTVSS”, for which the “polyreactivity (PSR sort gate)” value was “low polyreactivity”.

In the case of “QGQLVESGGGLVQAGGSLRLSCAASGRTFYRYAMGWYRQAPGQERELVASITRGTSTNYADSVKGRFTISRDNAKNTVYLQMNSLKPEDTAVYYCAAGASGLFWDYDYWGQGTQVTVSS”, the “polyreactivity (PSR sort gate)” value is on record as “high polyreactivity”.
